Reference: the supplement of paper PMC10724198

Key:
Saccharomyces cerevisiae [1] = experiment: protein stability index of tFT-peptide fusion in wild type (PSI (0-1 scale)); higher = more stable (slower turnover); conditions: genetic background: wild type
Saccharomyces cerevisiae [2] = experiment: protein stability index of tFT-peptide fusion in deletion strain of DOA10 (PSI (0-1 scale)); higher = more stable (slower turnover)
Description: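 MPS profiling in S. cerevisiae of two library types built from selected 12-aa C-degron peptides (IN1, IN2, LN1, LN3, VN2, R1-R5, W1-W3, Atg1 and Rpa12 C-termini): saturation mutagenesis libraries and C-terminal +1 capping libraries (13 aa). Each peptide is fused to the C-terminus of a sfGFP-mCherry timer, after a GGGS linker. Cells are FACS-sorted into 8 mCherry/sfGFP bins and sequenced. PSI runs from 0 (unstable) to 1 (stable), measured once in wild type and in the das1Δ or doa10Δ background.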
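For protein stability index of tFT-peptide fusion in deletion strain of DOA10 in this document: PSI per variant is the weighted mean of its sequencing read distribution over the sorted stability bins, counting only variants with over 10 reads summed across bins.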
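For protein stability index of tFT-peptide fusion in wild type in this document: PSI derived as read-weighted mean over the 8 sorting bins, only variants exceeding 10 total reads kept, mCherry placed adjacent to the peptide and sfGFP distal.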

Which protein stability index (Saccharomyces cerevisiae [1]) does the source give for CLVSLPILLFSR here?
The protein stability index was 0.391.

And the protein stability index (Saccharomyces cerevisiae [2])?
Its protein stability index is 0.486.

How did the protein stability index (Saccharomyces cerevisiae [1]) turn out when AITLPKCPLLLR was run?
Its protein stability index is 0.335.

And the protein stability index (Saccharomyces cerevisiae [2])?
The protein stability index was 0.663.

Which results are given for AITLSMCPLLLR?
protein stability index (Saccharomyces cerevisiae [1]): 0.311; protein stability index (Saccharomyces cerevisiae [2]): 0.653

With CLVSHPILLFFR as the sequence, how does the protein stability index (Saccharomyces cerevisiae [1]) read?
The protein stability index was 0.149.

And the protein stability index (Saccharomyces cerevisiae [2])?
Its protein stability index is 0.617.

Which protein stability index (Saccharomyces cerevisiae [1]) does the source give for NLVSLPILLFFR here?
Its protein stability index is 0.0961.

And the protein stability index (Saccharomyces cerevisiae [2])?
The protein stability index was 0.629.

For CLVSLPILLFAR, which protein stability index (Saccharomyces cerevisiae [1]) is on record?
Its protein stability index is 0.161.

What about the protein stability index (Saccharomyces cerevisiae [2]) of the same sequence?
The protein stability index was 0.239.

What does the source list for RSLDVLLPLYFR?
protein stability index (Saccharomyces cerevisiae [1]): 0.244; protein stability index (Saccharomyces cerevisiae [2]): 0.685

CLVSLTILLFFR was tested. Which protein stability index (Saccharomyces cerevisiae [1]) did it give?
The protein stability index was 0.185.

What about the protein stability index (Saccharomyces cerevisiae [2]) of the same sequence?
Its protein stability index is 0.263.

Which protein stability index (Saccharomyces cerevisiae [1]) does the source give for GLEMCSVGCWFR here?
Its protein stability index is 0.241.

And the protein stability index (Saccharomyces cerevisiae [2])?
The protein stability index was 0.658.

For FVTRLDAIYFRI, which protein stability index (Saccharomyces cerevisiae [1]) is on record?
Its protein stability index is 0.189.

What about the protein stability index (Saccharomyces cerevisiae [2]) of the same sequence?
The protein stability index was 0.549.

SLYMCSVGCWFR was tested. Which protein stability index (Saccharomyces cerevisiae [1]) did it give?
Its protein stability index is 0.387.

And the protein stability index (Saccharomyces cerevisiae [2])?
The protein stability index was 0.644.

How did the protein stability index (Saccharomyces cerevisiae [1]) turn out when GLYFCSVGCWFR was run?
Its protein stability index is 0.202.

And the protein stability index (Saccharomyces cerevisiae [2])?
Its protein stability index is 0.607.

CLVSLPILLFER was tested. Which protein stability index (Saccharomyces cerevisiae [1]) did it give?
Its protein stability index is 0.569.

What about the protein stability index (Saccharomyces cerevisiae [2]) of the same sequence?
The protein stability index was 0.625.

With RSCRVLLPLYFR as the sequence, how does the protein stability index (Saccharomyces cerevisiae [1]) read?
Its protein stability index is 0.275.

And the protein stability index (Saccharomyces cerevisiae [2])?
Its protein stability index is 0.66.

Which protein stability index (Saccharomyces cerevisiae [1]) does the source give for EITLPMCPLLLR here?
The protein stability index was 0.338.

What about the protein stability index (Saccharomyces cerevisiae [2]) of the same sequence?
Its protein stability index is 0.656.

What does the source list for RVTRLDAIYHRI?
protein stability index (Saccharomyces cerevisiae [1]): 0.662; protein stability index (Saccharomyces cerevisiae [2]): 0.723

GLYMCSVGCWFT was tested. Which protein stability index (Saccharomyces cerevisiae [1]) did it give?
Its protein stability index is 0.423.

What about the protein stability index (Saccharomyces cerevisiae [2]) of the same sequence?
Its protein stability index is 0.484.

GLYMCSVGPWFR was tested. Which protein stability index (Saccharomyces cerevisiae [1]) did it give?
The protein stability index was 0.656.

And the protein stability index (Saccharomyces cerevisiae [2])?
Its protein stability index is 0.688.

For AITNPMCPLLLR, which protein stability index (Saccharomyces cerevisiae [1]) is on record?
The protein stability index was 0.488.

What about the protein stability index (Saccharomyces cerevisiae [2]) of the same sequence?
Its protein stability index is 0.658.

For RSLRVLLPVYFR, which protein stability index (Saccharomyces cerevisiae [1]) is on record?
The protein stability index was 0.278.

What about the protein stability index (Saccharomyces cerevisiae [2]) of the same sequence?
The protein stability index was 0.632.

With RSLRVLPPLYFR as the sequence, how does the protein stability index (Saccharomyces cerevisiae [1]) read?
Its protein stability index is 0.273.

And the protein stability index (Saccharomyces cerevisiae [2])?
Its protein stability index is 0.697.

For TLYMCSVGCWFR, which protein stability index (Saccharomyces cerevisiae [1]) is on record?
The protein stability index was 0.375.

And the protein stability index (Saccharomyces cerevisiae [2])?
The protein stability index was 0.614.

With GLYMCDVGCWFR as the sequence, how does the protein stability index (Saccharomyces cerevisiae [1]) read?
The protein stability index was 0.59.

And the protein stability index (Saccharomyces cerevisiae [2])?
Its protein stability index is 0.699.

For GLYVCSVGCWFR, which protein stability index (Saccharomyces cerevisiae [1]) is on record?
The protein stability index was 0.2.

What about the protein stability index (Saccharomyces cerevisiae [2]) of the same sequence?
The protein stability index was 0.573.

For PVTRLDAIYFRI, which protein stability index (Saccharomyces cerevisiae [1]) is on record?
The protein stability index was 0.425.

What about the protein stability index (Saccharomyces cerevisiae [2]) of the same sequence?
Its protein stability index is 0.693.

Which protein stability index (Saccharomyces cerevisiae [1]) does the source give for GLYMCYVGCWFR here?
Its protein stability index is 0.223.

And the protein stability index (Saccharomyces cerevisiae [2])?
Its protein stability index is 0.423.

With CLVSLPIRLFFR as the sequence, how does the protein stability index (Saccharomyces cerevisiae [1]) read?
Its protein stability index is 0.0878.

And the protein stability index (Saccharomyces cerevisiae [2])?
Its protein stability index is 0.658.

Which protein stability index (Saccharomyces cerevisiae [1]) does the source give for RVTRLDAIYQRI here?
Its protein stability index is 0.664.

What about the protein stability index (Saccharomyces cerevisiae [2]) of the same sequence?
The protein stability index was 0.707.

AITHPMCPLLLR was tested. Which protein stability index (Saccharomyces cerevisiae [1]) did it give?
The protein stability index was 0.455.

What about the protein stability index (Saccharomyces cerevisiae [2]) of the same sequence?
The protein stability index was 0.676.

For RVTRLCAIYFRI, which protein stability index (Saccharomyces cerevisiae [1]) is on record?
The protein stability index was 0.178.

What about the protein stability index (Saccharomyces cerevisiae [2]) of the same sequence?
The protein stability index was 0.339.

How did the protein stability index (Saccharomyces cerevisiae [1]) turn out when AIALPMCPLLLR was run?
Its protein stability index is 0.231.

What about the protein stability index (Saccharomyces cerevisiae [2]) of the same sequence?
Its protein stability index is 0.632.

With RSLRVLLPLYFP as the sequence, how does the protein stability index (Saccharomyces cerevisiae [1]) read?
Its protein stability index is 0.634.

What about the protein stability index (Saccharomyces cerevisiae [2]) of the same sequence?
The protein stability index was 0.657.

RVTRLDAIYFVI was tested. Which protein stability index (Saccharomyces cerevisiae [1]) did it give?
Its protein stability index is 0.194.

And the protein stability index (Saccharomyces cerevisiae [2])?
The protein stability index was 0.233.

RSLRVLLDLYFR was tested. Which protein stability index (Saccharomyces cerevisiae [1]) did it give?
Its protein stability index is 0.64.

What about the protein stability index (Saccharomyces cerevisiae [2]) of the same sequence?
The protein stability index was 0.654.

GLYMCSVGCWFRV was tested. Which protein stability index (Saccharomyces cerevisiae [1]) did it give?
The protein stability index was 0.155.

And the protein stability index (Saccharomyces cerevisiae [2])?
Its protein stability index is 0.402.

What does the source list for AITLPMCPQLLR?
protein stability index (Saccharomyces cerevisiae [1]): 0.64; protein stability index (Saccharomyces cerevisiae [2]): 0.688

AITLPMCPLMLR was tested. Which protein stability index (Saccharomyces cerevisiae [1]) did it give?
Its protein stability index is 0.212.

What about the protein stability index (Saccharomyces cerevisiae [2]) of the same sequence?
The protein stability index was 0.611.

How did the protein stability index (Saccharomyces cerevisiae [1]) turn out when GLYMCSVGCNFR was run?
The protein stability index was 0.632.

What about the protein stability index (Saccharomyces cerevisiae [2]) of the same sequence?
Its protein stability index is 0.648.

How did the protein stability index (Saccharomyces cerevisiae [1]) turn out when RSLRVLLPRYFR was run?
The protein stability index was 0.637.

What about the protein stability index (Saccharomyces cerevisiae [2]) of the same sequence?
Its protein stability index is 0.664.

What does the source list for CLVSLPIFLFFR?
protein stability index (Saccharomyces cerevisiae [1]): 0.0521; protein stability index (Saccharomyces cerevisiae [2]): 0.591

What does the source list for GLYMTSVGCWFR?
protein stability index (Saccharomyces cerevisiae [1]): 0.275; protein stability index (Saccharomyces cerevisiae [2]): 0.709

For TVTRLDAIYFRI, which protein stability index (Saccharomyces cerevisiae [1]) is on record?
The protein stability index was 0.364.

What about the protein stability index (Saccharomyces cerevisiae [2]) of the same sequence?
Its protein stability index is 0.707.

Which protein stability index (Saccharomyces cerevisiae [1]) does the source give for RSLRVKLPLYFR here?
Its protein stability index is 0.195.

What about the protein stability index (Saccharomyces cerevisiae [2]) of the same sequence?
Its protein stability index is 0.667.

Which results are given for AITLPMCYLLLR?
protein stability index (Saccharomyces cerevisiae [1]): 0.0897; protein stability index (Saccharomyces cerevisiae [2]): 0.638

How did the protein stability index (Saccharomyces cerevisiae [1]) turn out when GLFMCSVGCWFR was run?
Its protein stability index is 0.264.

And the protein stability index (Saccharomyces cerevisiae [2])?
Its protein stability index is 0.549.

With TITLPMCPLLLR as the sequence, how does the protein stability index (Saccharomyces cerevisiae [1]) read?
Its protein stability index is 0.296.

And the protein stability index (Saccharomyces cerevisiae [2])?
The protein stability index was 0.633.

With AITRPMCPLLLR as the sequence, how does the protein stability index (Saccharomyces cerevisiae [1]) read?
The protein stability index was 0.393.

And the protein stability index (Saccharomyces cerevisiae [2])?
The protein stability index was 0.65.

Which protein stability index (Saccharomyces cerevisiae [1]) does the source give for RVTRLDAPYFRI here?
Its protein stability index is 0.676.

And the protein stability index (Saccharomyces cerevisiae [2])?
The protein stability index was 0.722.

For AITLPMIPLLLR, which protein stability index (Saccharomyces cerevisiae [1]) is on record?
The protein stability index was 0.115.

And the protein stability index (Saccharomyces cerevisiae [2])?
The protein stability index was 0.595.
